The chains are these.
B1: NLV2 TCR alpha chain (CDR3α only) (parent)
chain: AGPMKTSYDKVI
partner: NLVGMVATV

Consider 49 variants from paper PMC13397619.

The variants in this assay derive from B1. As to the kind of experiment: T-Switch: Jurkat TCRβ−/− cells expressing a CDR3 saturation-mutagenesis library, stained with two peptide-HLA-A*02:01 tetramers (original and novel peptide) plus anti-CD3, FACS-sorted into four gates, gDNA sequenced. Particulars: with HLA-A*02:01 with peptide … (NLV 2-2, the original bait), tetramers 1 µg/mL, 30 min on ice, DP and SW gates expanded about 10 days between rounds ('two to three rounds of selection' in the Methods), gate SP: higher = more of the variant in the gate that binds the original peptide and not the novel one = retained original binding. Fold enrichment of the CDR3 variant in one FACS gate of a two-tetra, unresolved parent, parent is a CDR3 fragment, scale: fold enrichment, numbering: sequential-on-construct, sequence ….
For […] (CDR3 as printed); P3Q derived by comparing it with the table's wild-type CDR3 AGPMKTSYDKVI, the enrichment came to 0. Next, […] (CDR3 as printed); K10L derived by comparing it with the table's wild-type CDR3 AGPMKTSYDKVI: 0. Next, […] (CDR3 as printed); G2T derived by comparing it with the table's wild-type CDR3 AGPMKTSYDKVI: 10.1; […] (CDR3 as printed); A1Q derived by comparing it with the table's wild-type CDR3 AGPMKTSYDKVI: 0. As to […] (CDR3 as printed); K5F derived by comparing it with the table's wild-type CDR3 AGPMKTSYDKVI, the enrichment was 0. Next, […] (CDR3 as printed); I12Y derived by comparing it with the table's wild-type CDR3 AGPMKTSYDKVI: 0. On to […] (CDR3 as printed); G2H derived by comparing it with the table's wild-type CDR3 AGPMKTSYDKVI, for which the enrichment is 0. With […] (CDR3 as printed); A1C derived by comparing it with the table's wild-type CDR3 AGPMKTSYDKVI the figure was 0.571; with […] (CDR3 as printed); S7V derived by comparing it with the table's wild-type CDR3 AGPMKTSYDKVI, 0; with […] (CDR3 as printed); G2M derived by comparing it with the table's wild-type CDR3 AGPMKTSYDKVI, 0.715. Next, […] (CDR3 as printed); P3K derived by comparing it with the table's wild-type CDR3 AGPMKTSYDKVI: 0. Next, […] (CDR3 as printed); P3C derived by comparing it with the table's wild-type CDR3 AGPMKTSYDKVI: 0. Take […] (CDR3 as printed); I12L derived by comparing it with the table's wild-type CDR3 AGPMKTSYDKVI: the enrichment was 0.259. With […] (CDR3 as printed); D9F derived by comparing it with the table's wild-type CDR3 AGPMKTSYDKVI the figure was 0; with […] (CDR3 as printed); S7L derived by comparing it with the table's wild-type CDR3 AGPMKTSYDKVI, 0; with […] (CDR3 as printed); M4N derived by comparing it with the table's wild-type CDR3 AGPMKTSYDKVI, 0. Take […] (CDR3 as printed); S7R derived by comparing it with the table's wild-type CDR3 AGPMKTSYDKVI: the enrichment came to 0. Next, […] (CDR3 as printed); S7H derived by comparing it with the table's wild-type CDR3 AGPMKTSYDKVI: 0. Next, […] (CDR3 as printed); S7C derived by comparing it with the table's wild-type CDR3 AGPMKTSYDKVI: 0; […] (CDR3 as printed); S7E derived by comparing it with the table's wild-type CDR3 AGPMKTSYDKVI: 0; […] (CDR3 as printed); S7I derived by comparing it with the table's wild-type CDR3 AGPMKTSYDKVI: 0. With […] (CDR3 as printed); P3F derived by comparing it with the table's wild-type CDR3 AGPMKTSYDKVI the figure was 0; with […] (CDR3 as printed); P3W derived by comparing it with the table's wild-type CDR3 AGPMKTSYDKVI, 0. For […] (CDR3 as printed); M4Q derived by comparing it with the table's wild-type CDR3 AGPMKTSYDKVI, the enrichment amounted to 5.77.

On to […] (CDR3 as printed); K5E derived by comparing it with the table's wild-type CDR3 AGPMKTSYDKVI, for which the enrichment came to 21.3.

Consider […] (CDR3 as printed); P3R derived by comparing it with the table's wild-type CDR3 AGPMKTSYDKVI, for which the enrichment was 0. Regarding […] (CDR3 as printed); S7N derived by comparing it with the table's wild-type CDR3 AGPMKTSYDKVI, the enrichment stood at 0. With […] (CDR3 as printed); D9V derived by comparing it with the table's wild-type CDR3 AGPMKTSYDKVI the figure was 0. Next, […] (CDR3 as printed); K10T derived by comparing it with the table's wild-type CDR3 AGPMKTSYDKVI: 0; […] (CDR3 as printed); A1P derived by comparing it with the table's wild-type CDR3 AGPMKTSYDKVI: 2.46. Next, […] (CDR3 as printed); S7Q derived by comparing it with the table's wild-type CDR3 AGPMKTSYDKVI: 0; […] (CDR3 as printed); K10Y derived by comparing it with the table's wild-type CDR3 AGPMKTSYDKVI: 4.15; […] (CDR3 as printed); I12D derived by comparing it with the table's wild-type CDR3 AGPMKTSYDKVI: 0. Turning to […] (CDR3 as printed); K10W derived by comparing it with the table's wild-type CDR3 AGPMKTSYDKVI, the enrichment is 0.

As for […] (CDR3 as printed); A1H derived by comparing it with the table's wild-type CDR3 AGPMKTSYDKVI, the enrichment turned out to be 1.05. With […] (CDR3 as printed); I12F derived by comparing it with the table's wild-type CDR3 AGPMKTSYDKVI the figure was 2.21. Turning to […] (CDR3 as printed); G2K derived by comparing it with the table's wild-type CDR3 AGPMKTSYDKVI, the enrichment is 0. With […] (CDR3 as printed); A1W derived by comparing it with the table's wild-type CDR3 AGPMKTSYDKVI the figure was 0; with […] (CDR3 as printed); D9S derived by comparing it with the table's wild-type CDR3 AGPMKTSYDKVI, 0; with […] (CDR3 as printed); K5W derived by comparing it with the table's wild-type CDR3 AGPMKTSYDKVI, 5.12. Next, […] (CDR3 as printed); G2C derived by comparing it with the table's wild-type CDR3 AGPMKTSYDKVI: 0; […] (CDR3 as printed); G2L derived by comparing it with the table's wild-type CDR3 AGPMKTSYDKVI: 0; […] (CDR3 as printed); S7P derived by comparing it with the table's wild-type CDR3 AGPMKTSYDKVI: 0. With […] (CDR3 as printed); K5A derived by comparing it with the table's wild-type CDR3 AGPMKTSYDKVI the figure was 23.5; with […] (CDR3 as printed); K10Q derived by comparing it with the table's wild-type CDR3 AGPMKTSYDKVI, 1.98; with […] (CDR3 as printed); G2Q derived by comparing it with the table's wild-type CDR3 AGPMKTSYDKVI, 0.

In the case of […] (CDR3 as printed); I12W derived by comparing it with the table's wild-type CDR3 AGPMKTSYDKVI, the enrichment is 0.

As to […] (CDR3 as printed); A1D derived by comparing it with the table's wild-type CDR3 AGPMKTSYDKVI, the enrichment is 0.

[…] (CDR3 as printed); K5V derived by comparing it with the table's wild-type CDR3 AGPMKTSYDKVI: the enrichment amounted to 1.08.
